Data: patent US20220152108A1

Biological target: sodium taurocholate co-transporting receptor (NTCP), expressed on HepG2 cells (human) (UniProt Q14973)
Assay: cell-based or functional assay

UniProt Q14973, sequence (Q14973 whole entry): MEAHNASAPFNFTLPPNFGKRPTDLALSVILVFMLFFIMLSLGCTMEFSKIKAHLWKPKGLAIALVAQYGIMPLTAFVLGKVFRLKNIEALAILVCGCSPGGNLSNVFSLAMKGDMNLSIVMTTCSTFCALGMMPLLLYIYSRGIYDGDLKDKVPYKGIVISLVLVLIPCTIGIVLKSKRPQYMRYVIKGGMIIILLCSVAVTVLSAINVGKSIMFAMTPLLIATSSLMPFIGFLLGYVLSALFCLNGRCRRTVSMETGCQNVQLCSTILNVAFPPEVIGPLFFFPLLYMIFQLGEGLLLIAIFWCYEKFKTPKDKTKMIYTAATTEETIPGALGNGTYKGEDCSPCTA

With “CAR-PreS1 construct (signal peptide-PreS1-CD8 hinge-CD8 Transmembrane-CD28-4-1BB-CD3zeta-T2A-EGFP), expressed on T cells” the IFN gamma expression of CAR-PreS1 T cells co-cultured with HepG2 cells expressing or lacking NTCP was 3 fold and the degranulation (CD107a expression) of CAR-PreS1 T cells co-cultured with HepG2 cells expressing or lacking NTCP was 2 fold.
